Consider 12 sequences from the DeepSol protein solubility set.

The series is described as follows: soluble on expression in E. coli; label from the status in PepcDB or PDB records.
Turning to “GAQRRNEIQVPDLDGYTTLKCDFHMHSVFSDGLVWPTVRVDEAYRDGLDAISLTEHIEYRPHKQDVVSDHNRSFDLCREQAEKLGILLIKGSEITRAMAPGHFNAIFLSDSNPLEQKDYKDAFREAKKQGAFMFWNHPGWDSQQPDTTKWWPEHTALYQEGCMHGIEVANGHLYMPEAIQWCLDKNLTMIGTSDIHQPIQTDYDFEKGEHRTMTFVFAKERSLQGIREALDNRRTAAYFHELLIGREDLLRPFFEKCVKIEEVSRNEQGVTLSITNVTDLVLKLKKTAHDTLLVYFRDMTLKPHTRYTVRIGFKQGIKGGDVNFEVTNFIVAPDKGLKYTISL”, the “soluble on expression in E. coli” value is reported as “soluble”.
For the sequence “MAHHHHHHMHIFIYIQYLCFGVNEIIFHKPHKCHFFIYNILEGEKGKKPGFINLSNIMNNHNKYESKGFSASSLNNKSFSMTNDKITCGNEKKEMEGEGILNGSSKVDEEDKNIYNSKNNNNNMNYFNNKKIETKKTLGHKDIFVYVLVAGGDGTVNWVLKEAEYYNINDNNFAIGVIPFGTGNDFAKAFGWKKIDRMLNHSFLFDVLKKIVDQTFKSKVEKHDYWNIHVVLKEQGYFNKINSRTKKKETLLNDDKENLHEMKLCMSNYFSIGIDSRIGRGFERHRQKSAVCNKFIYAVEGFKKVSFKKNTPINLIIDKMINMDNNNDNNDNDNNIDGNDNNNDGNDNNNVIFTTNHNESYPLLKKAMSIICINIPSYSSGNDIWNYTHKIGLILPKNITNDQKEQYQILKKTKQEVGDGILEFVIYQSGVDLGLEFTLKGRAYRVHQGFGPWKLLFKEQKYNVYFQVDGEYYLMSLPDYISIEHYKKINVLKNIL”, the “soluble on expression in E. coli” value is “not soluble”.
Take “MKKLTFEIRSPAHQQNAIHAVQQILPDPTKPIVVTIQERNRSLDQNRKLWACLGDVSRQVEWHGRWLDAESWKCVFTAALKQQDVVPNLAGNGFVVIGQSTSRMRVGEFAELLELIQAFGTERGVKWSDEARLALEWKARWGDRAA”: the “soluble on expression in E. coli” value is listed as “soluble”.
In the case of “MMLAMIKDPFARLGLDREVLTVSQLNGRARVLLEDVFSSIWVEGEISNLSRPASGHVYFTLKDSGAQVRCALFRQSAARVRQALKDGLQVKVRGKVSLFEGRGDYQLILDTVEPAGDGALRLAFDALKAKLSDEGLFSADRKVALPLHPQRIGIISSPTGAVIRDIISVFRRRAPRVELTLIPTAVQGREAINQIVRALKLADARGFDALILARGGGSLEDLWCFNEEAVARAIDACVTPIVSAVGHETDVSISDFVADVRAPTPSAAAELLAPDSSDLHRRVDNLHRRLVSRMQDRLMRERLRLEGISRRLRHPGERLRQQSQRLDDLDMRLRRAFEQSMHKKQVRLAHMESRLTAQHPGRTLAFLRQRLDALAERLPRAIREQIKVRKLQLQSQMQTLNVVSPLATLGRGYSILLDERGHAIRNAAQTQPGQRLTARLGEGELQVRVEDNHLTPVTLSLLD”, the “soluble on expression in E. coli” value is recorded as “not soluble”.
For “SEDDAPVIYGLEFQARALTPQTAETDAIRFLVGTQSLKYDNQIHIIDFDDENNIINKNVLLHQAGEIWHISASPADRGVLTTCYNRTSDSKVLTCAAVWRMPKELESGSHESPDDSSSTAQTLELLCHLDNTAHGNMACVVWEPMGDGKKIISLADNHILLWDLQESSSQAVLASSASLEGKGQLKFTSGRWSPHHNCTQVATANDTTLRGWDTRSMSQIYCIENAHGQLVRDLDFNPNKQYYLASCGDDCKVKFWDTRNVTEPVKTLEEHSHWVWNVRYNHSHDQLVLTGSSDSRVILSNMVSISSEPFGHLVDDDDISDQEDHRSEEKSKEPLQDNVIATYEEHEDSVYAVDWSSADPWLFASLSYDGRLVINRVPRALKYHILL”, the “soluble on expression in E. coli” value is recorded as “soluble”.
As for “MAHHHHHHMVGARFFFLNLPTSLSSASSLNRNKITSNRLPTDPSTPQWRDGYKLRKAVDDSSTQSTHRLPIYFCNAQRRVSSHSGRKTLLLATICIYDVGALDSFPIVLLVPLLNFIKSGLNEVDGSADCVDFSEYQCLTAPFPTTFRISLCPRLRFGGQFFFFCTHSRGDKNSRSILSHQRLAKFVPLFHTWYNEQDIS”, the entry is “not soluble”.
For the sequence “LNSVGQGEFGGAPFKRFLRGTRIVSGGKLKRMTREKAKQVTVAGVPMPRDAEPRHLLVNGATGTGKSVLLRELAYTGLLRGDRMVIVDPNGDMLSKFGRDKDIILNPYDQRTKGWSFFNEIRNDYDWQRYALSVVPRGKTDEAEEWASYGRLLLRETAKKLALIGTPSMRELFHWTTIATFDDLRGFLEGTLAESLFAGSNEASKALTSARFVLSDKLPEHVTMPDGDFSIRSWLEDPNGGNLFITWREDMGPALRPLISAWVDVVCTSILSLPEEPKRRLWLFIDELASLEKLASLADALTKGRKAGLRVVAGLQSTSQLDDVYGVKEAQTLRASFRSLVVLGGSRTDPKTNEDMSLSLGEHEVERDRYSKNTGKHHSTGRALERVRERVVMPAEIANLPDLTAYVGFAGNRPIAKVPLEIKQFANRQPAFVEGTI”, the “soluble on expression in E. coli” value is listed as “soluble”.
For “MSQNVYQFIDLQRVDPPKKPLKIRKIEFVEIYEPFSETQAKAQADRCLSCGNPYCEWKCPVHNYIPNWLKLANEGRIMEAADLAHQTNSLPEVCGRVCPQDRLCEGSCTLNDEFGAVTIGNIERYISDKAIAMGWKPDMSHVHPTGKRVAVIGAGPAGLACADVLARNGVQAVVFDRHPEIGGLLTFGIPAFKLEKEVMIKRRKIFSEMGIEFQLNTEVGKDITMEALLKDYDAVFLGVGTYQSMRGGLENEEANGVYDALPFLIANTKQLMGYEATAHEPYINMQGKRVVVLGGGDTAMDCVRSSIRQGATDVVCAYRRDEVNMPGSKREVKNAREEGVEFKFNLQPLSIEVNSNGKVCGVRMVRTQLGAPDAQGRRMAEQIPGSEHVLPADAVVMAFGFRPHSMEWLAAHDVKLDKQGRVIAPESTDNAFQTSNPKIFAGGDIVRGSDLVVTAIAEGRKAADGIMNYLEV”, the “soluble on expression in E. coli” value is reported as “not soluble”.
As to “MGSDKIHHHHHHMQNPAIGNVADTTASDFAELPATASHGPLRIEYRWVNAAAGNAPIAVFLHEGLGSVTMWRDWPQALCERLGMRGLVYSRPGYGLSTPRPHDVKWPADFMTAQARDILPALLDALCIDMRERRRMWVIGHSDGGSITLLYAALYPEELAGAVAIAPHVFVEDISVESIAQTRQLYETTDLRSKLGRYHADVDSAFYGWNDIWLNPAFRQWSIAGELTSIRKPLLAVQGHDDNYGTMAQIDTIAAHVPHAQLVKLDACGHSPHRDAPQPLNKAIAAFVLKDGVA”, the “soluble on expression in E. coli” value is “not soluble”.
“MARFNAAFTRIKIMFSRIRGLISCQSNTQTIAPTLSPPSSGHVSFAGIDYPLLPLNHQTPLVFQWFERNPDRFGQNEIPIINTQKNPYLNNIINAAIIEKERIIGIFVDGDFSKGQRKALGKLEQNYRNIKVIYNSDLNYSMYDKKLTTIYLENITKLEAQSASERDEVLLNGVKKSLEDVLKNNPEETLISSHNKDKGHLWFDFYRNLFLLKGSDAFLEAGKPGCHHLQPGGGCIYLDADMLLTDKLGTLYLPDGIAIHVSRKDNHVSLENGIIAVNRSEHPALIKGLEIMHSKPYGDPYNDWLSKGLRHYFDGSHIQDYDAFCDFIEFKHENIIMNTSSLTASSWR”: the “soluble on expression in E. coli” value is “not soluble”.
Regarding “MTKETYPKATVLDISASVEYSDGGIISKQVLKNEVGNITLFSFDQGQGLSEHTAPFDAFVQILEGEAEIRIGGQPLLLKAGRSVIMPANVSHALHATKRFKMLLTMIRG”, the “soluble on expression in E. coli” value is “not soluble”.
Then “MGSSHHHHHHSSGLVPRGSHMLDIMSDDGDITAVSSGNRDIAQVVTENNKNYLVLYASQTGTAEGFAKAFSKELVAKFNLNVMCADVENYDFESLNDVPVIVSIFISTYGEGDFPDGAVNFEDFICNAEAGALSNLRYNMFGLGNSTYEFFNGAAKKAEKHLSAAGAIRLGKLGEADDGAGTTDEDYMAWKDSILEVLKDELHLDEQEAKFTSQFQYTVLNEITDSMSLGEPSAHYLPSHQLNRNADGIQLGPFDLSQPYIAPIVKSRELFSSNDRNCIHSEFDLSGSNIKYSTGDHLAVWPSNPLEKVEQFLSIFNLDPETIFDLKPLDPTVKVPFPTPTTIGAAIKHYLEITGPVSRQLFSSLIQFAPNADVKEKLTLLSKDKDQFAVEITSKYFNIADALKYLSDGAKWDTVPMQFLVESVPQMTPRYYSISSSSLSEKQTVHVTSIVENFPNPELPDAPPVVGVTTNLLRNIQLAQNNVNIAETNLPVHYDLNGPRKLFANYKLPVHVRRSNFRLPSNPSTPVIMIGPGTGVAPFRGFIRERVAFLESQKKGGNNVSLGKHILFYGSRNTDDFLYQDEWPEYAKKLDGSFEMVVAHSRLPNTKKVYVQDKLKDYEDQVFEMINNGAFIYVCGDAKGMAKGVSTALVGILSRGKSITTDEATELIKMLKTSGRYQEDVW”, with “soluble”.
